Experimental data as given in PMC7528686 (Molecules and Cells, 2020).

Target: the molecule itself
Test: SEC

B1: CafA (residues 75-287), β-class carbonic anhydrase of Aspergillus fumigatus (enzyme, UniProt A4UTP0 75-287, looked up)
chain: DSLSDKFSAALAKNKEWAAKCSQEHPELLPTLAVGQHPEILWIGCSDSRCPETTILGLLPGDVFTHRNIANVIHPADLSSGAVIEFAVRHLRVKHVVICGHTKCGGVAAALGNKGLGILDPWLIPLRQLREQHLAELQSLSRDEAVVRLAELNVKEGLKALTQKSVVLEAMQERGLQVHGLIYDVGSGFLRQLDAAEPEEALKARLTSFKTDA
B1 was tested, and the “stoichiometry N” value was 4.
